Measurements reported in publication PMC12876063, “Rad51 determines pathway usage in post-replication repair” (Nature Communications, 2026).
Positions count from the first letter of the chain named. In names and notes the source's numbering stands. Several values for one entry are separate records, joined by “and”; a condition that tells them apart may be missing. Equal entries are not always repeated.

B1: Rad51 wild type protein (natural protein, S. cerevisiae, UniProt P25454 1-400, looked up)
chain: MSQVQEQHISESQLQYGNGSLMSTVPADLSQSVVDGNGNGSSEDIEATNGSGDGGGLQEQAEAQGEMEDEAYDEAALGSFVPIEKLQVNGITMADVKKLRESGLHTAEAVAYAPRKDLLEIKGISEAKADKLLNEAARLVPMGFVTAADFHMRRSELICLTTGSKNLDTLLGGGVETGSITELFGEFRTGKSQLCHTLAVTCQIPLDIGGGEGKCLYIDTEGTFRPVRLVSIAQRFGLDPDDALNNVAYARAYNADHQLRLLDAAAQMMSESRFSLIVVDSVMALYRTDFSGRGELSARQMHLAKFMRALQRLADQFGVAVVVTNQVVAQVDGGMAFNPDPKKPIGGNIMAHSSTTRLGFKKGKGCQRLCKVVDSPCLPEAECVFAIYEDGVGDPREEDE
notes: Rad51, Saccharomyces cerevisiae; native, untagged protein; Purified native and untagged; also called wild-type Rad51; wild type Rad51
B2: Rad51-E135D (natural protein, S. cerevisiae, UniProt P25454 1-400, looked up)
chain: B1 chain with E135D
notes: Rad51, Saccharomyces cerevisiae, with the single change E135D (isolated by mutagenic PCR); native, untagged protein; also called Rad51-ED; rad51-ED
B3: Rad51-K305N (natural protein, S. cerevisiae, UniProt P25454 1-400, looked up)
chain: B1 chain with K305N
notes: Rad51, Saccharomyces cerevisiae, with the single change K305N (isolated by mutagenic PCR); native, untagged protein; also called Rad51-KN; RAD51-KN

Key:
[1] = target: T1, Rad51-ED (Rad51-E135D) E135D (Saccharomyces cerevisiae) (UniProt P25454); test: EMSA; conditions: Kd EMSA: 35 mM Tris-acetate pH 7.5, 50 or 100 mM NaCl, 7 mM Mg acetate, 2 mM ATP, 1 mM DTT, 0.25 mg/mL BSA, 3 uM nt/bp DNA, 30 C 30 min; salt titration: 20 mM …
T1 sequence: B1 chain with E135D

[2] = target: T2, Rad51-KN (Rad51-K305N) K305N (Saccharomyces cerevisiae) (UniProt P25454); test: EMSA; conditions: Kd EMSA: 35 mM Tris-acetate pH 7.5, 50 or 100 mM NaCl, 7 mM Mg acetate, 2 mM ATP, 1 mM DTT, 0.25 mg/mL BSA, 3 uM nt/bp DNA, 30 C 30 min; salt titration: 20 mM …
T2 sequence: B1 chain with K305N

[3] = target: T3, Rad51 wild type (Saccharomyces cerevisiae) (UniProt P25454); test: EMSA; conditions: Kd EMSA: 35 mM Tris-acetate pH 7.5, 50 or 100 mM NaCl, 7 mM Mg acetate, 2 mM ATP, 1 mM DTT, 0.25 mg/mL BSA, 3 uM nt/bp DNA, 30 C 30 min; salt titration: 20 mM …
T3 sequence: B1 chain

[4] = target: T1, Rad51-ED (Rad51-E135D) E135D (Saccharomyces cerevisiae); test: EMSA (salt titration); conditions: 3.33 uM Rad51, ATP, Mg2+; listed as label assigned from text (ED defect stronger); Kd EMSA: 35 mM Tris-acetate pH 7.5, 50 or 100 mM NaCl, 7 mM Mg acetate, 2 mM ATP, 1 mM DTT, 0.25 mg/mL BSA, 3 uM nt/bp DNA, 30 C 30 min; salt titration: 20 mM …
[5] = target: T2, Rad51-KN (Rad51-K305N) K305N (Saccharomyces cerevisiae); test: EMSA (salt titration); conditions: 3.33 uM Rad51, ATP, Mg2+; listed as label assigned from text (ED defect stronger); Kd EMSA: 35 mM Tris-acetate pH 7.5, 50 or 100 mM NaCl, 7 mM Mg acetate, 2 mM ATP, 1 mM DTT, 0.25 mg/mL BSA, 3 uM nt/bp DNA, 30 C 30 min; salt titration: 20 mM …
[6] = target: T3, Rad51 wild type (Saccharomyces cerevisiae); test: EMSA (salt titration); conditions: 3.33 uM Rad51, ATP, Mg2+, glutaraldehyde fixed; Kd EMSA: 35 mM Tris-acetate pH 7.5, 50 or 100 mM NaCl, 7 mM Mg acetate, 2 mM ATP, 1 mM DTT, 0.25 mg/mL BSA, 3 uM nt/bp DNA, 30 C 30 min; salt titration: 20 mM …
[7] = target: T4, GST-Rad55-His6-Rad57 complex (S. cerevisiae, UniProt P38953 1-406; P25301 1-460); test: pull-down; 100 nM GST-Rad55-His6-Rad57 with 100 nM Rad51 in buffer P (25 mM Tris-acetate pH 7.5, 10 mM magnesium acetate, 50 mM NaCl, 1 mM DTT, 10% glycerol, 0.01% NP-40), 25 ul, 1 h at room temperature; captured on BSA-treated glutathione agarose beads; immunoblot with anti-Rad51 and anti-GST; conditions: both partners purified
T4 construct: Rad55, Rad51 paralog of budding yeast; Rad57, Rad51 paralog of budding yeast; stored in 20 mM Tris-HCl pH 7.5, 0.2 M NaCl, 0.1 mM EDTA, 1 mM DTT, 50% glycerol; also called Rad55-Rad57; Rad51 paralog complex; source: purified as described (Liu et al. 2011b)
T4 sequence (looked up) 1: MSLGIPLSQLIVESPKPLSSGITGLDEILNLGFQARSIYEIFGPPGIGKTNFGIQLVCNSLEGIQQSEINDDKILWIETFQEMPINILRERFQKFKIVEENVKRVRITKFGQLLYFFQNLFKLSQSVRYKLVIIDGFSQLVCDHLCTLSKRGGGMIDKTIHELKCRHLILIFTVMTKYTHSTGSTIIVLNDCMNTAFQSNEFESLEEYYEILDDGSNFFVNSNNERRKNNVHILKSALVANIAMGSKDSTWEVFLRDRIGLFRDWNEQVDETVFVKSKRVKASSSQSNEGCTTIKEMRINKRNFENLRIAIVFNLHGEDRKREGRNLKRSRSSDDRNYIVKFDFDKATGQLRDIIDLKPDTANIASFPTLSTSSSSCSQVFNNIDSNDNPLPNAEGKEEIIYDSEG
T4 sequence (looked up) 2: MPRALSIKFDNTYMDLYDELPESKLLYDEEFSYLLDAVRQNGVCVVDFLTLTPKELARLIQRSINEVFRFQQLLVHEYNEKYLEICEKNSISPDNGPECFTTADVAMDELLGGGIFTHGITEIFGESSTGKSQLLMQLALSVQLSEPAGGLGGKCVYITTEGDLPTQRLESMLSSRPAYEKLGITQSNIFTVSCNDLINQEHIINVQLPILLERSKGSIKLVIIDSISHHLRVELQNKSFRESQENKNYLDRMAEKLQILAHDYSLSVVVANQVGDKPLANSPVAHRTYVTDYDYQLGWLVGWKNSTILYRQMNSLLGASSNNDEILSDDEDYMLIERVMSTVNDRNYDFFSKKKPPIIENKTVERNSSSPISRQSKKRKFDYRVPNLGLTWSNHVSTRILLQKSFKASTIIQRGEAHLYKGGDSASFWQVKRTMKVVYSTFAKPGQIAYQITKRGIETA

Molecule | salt titration midpoint (mM NaCl (salt titration midpoint)) [4] | salt titration midpoint (mM NaCl (salt titration midpoint)) [5] | salt titration midpoint (mM NaCl (salt titration midpoint)) [6] | binding result [7] | also measured
AACGACGTTTGGTCAGTTCCATCAACATCATAGCCAGATGCCCAGAGATTAGAGCGCATGACAAGTAAAGGACGGTTGTCAGCGTCATAAGAGGTTTTAC [olWDH2086 100 nt ssDNA] |  |  |  |  | Kd [1]: 486 nM and 602 nM; Kd [2]: 339 nM and 402 nM; Kd [3]: 497 nM and 578 nM
PhiX174 viral ssDNA | 130 | 143 | 246 |  | 
PhiX174 RF1 dsDNA | 42 | 71 | 174 |  | 
B1 |  |  |  | binds | 
B2 |  |  |  | binds | 
B3 |  |  |  | binds | 
